Assay [1] has as its target T1, Akt1 (Homo sapiens, UniProt P31749). Briefly: GST-FAK truncation/mutant fusion protein pull-down of Akt1 (cell lysate or purified Akt1). Also on record: endogenous in cells; host or cells: Caco-2 or SW620 cell lysate. The assay is classed as binding. The settings on record: for Akt1 pulled down by GST-FAK truncations: GST pull-down, N=4, p<0.05. As for the experimental part: (§1) Glutathione-Sepharose 4B beads (15 μl) were washed twice in ice-cold PBS and resuspended in 400 μl PBS. Bacterial lysate containing GST-Akt1, GST-FAK-NT1 (truncations), or GST proteins (gift of Dr. J. Chen) were then added in excess and incubated with the beads for 1 h. Glutathione-Sepharose 4B beads coupled to GST-Akt1, GST-FAK (truncations), or GST were then washed twice with PBS by centrifuge for 5 min at 500 g and incubated with nontransfected or transfected Caco-2 cell lysates (600-800 μg protein) overnight at 4° C. Transfected Caco-2 cells received plasmids encoding HA-WT-FAK or HA-FRNK. Nontransfected and transfected Caco-2 cell lysates were prepared in cell lysis buffer lysis buffer [50 mM Tris (pH 7.4), 150 mM NaCl, 1% Triton X-100, 1% sodium deoxycholate, 0.1% SDS, 1 mM EDTA, 1 mM phenylmethylsulfonyl fluoride, 1 mM Na3VO4, 50 mM NaF, 10 mM sodium pyrophosphate, […] (pH 7.4)]. Following incubation, beads were washed twice with lysis buffer without SDS and protease inhibitors. Proteins were eluted with Laemmli SDS sample dilution buffer, separated by 10% SDS-PAGE, and immunoblotted with GST, Akt1 (Cell Signaling Technology, Danvers, Mass.), or HA monoclonal antibodies (Covance, Chantilly, Va.).
In some cases Glutathione-Sepharose-4B beads (30 μl) (GE Healthcare Life Science, Pittsburgh, Pa.) were conjugated with GST (expressed protein from a 250 μl bacterial pellet per 30 μl of beads) or recombinant GST-tagged (expressed protein from a 3 ml bacterial pellet per 30 μl of beads) (24) and incubated with lysate from 2×10^7 Caco-2 or SW620 cells (1500 μg protein) or purified Akt1 (0.35 μg) (Origene, Rockville, Md.) overnight at 4° C. […]
Protein concentrations were determined by bicinchoninic acid (BCA) protein assay (Pierce, Rockford, Ill.). […] Membranes were visualized by the infrared fluorescent IRDye system (LI-COR Biosciences, Lincoln, Nebr.) and analyzed on an Odyssey scanner (LI-COR Biosciences, Lincoln, Nebr.) within the linear range. […]

Assay [2] has as its target T1, Akt1. The assay is described as follows: GST-Akt1 pull-down of HA-tagged wild type FAK or FRNK from transfected Caco-2 cell lysate. The format is binding. Also on record: made in house; host or cells: bacteria (pGEX-4T1; E. coli BL21 is printed only for the GST-FAK fusions). The settings on record: lysate of transiently transfected Caco-2 cells; 1 of 2 similar experiments. As for the experimental part: as §1, with “Va.). […]” for “Va.).”

T1 sequence (P31749 whole entry, the tested form may be a part): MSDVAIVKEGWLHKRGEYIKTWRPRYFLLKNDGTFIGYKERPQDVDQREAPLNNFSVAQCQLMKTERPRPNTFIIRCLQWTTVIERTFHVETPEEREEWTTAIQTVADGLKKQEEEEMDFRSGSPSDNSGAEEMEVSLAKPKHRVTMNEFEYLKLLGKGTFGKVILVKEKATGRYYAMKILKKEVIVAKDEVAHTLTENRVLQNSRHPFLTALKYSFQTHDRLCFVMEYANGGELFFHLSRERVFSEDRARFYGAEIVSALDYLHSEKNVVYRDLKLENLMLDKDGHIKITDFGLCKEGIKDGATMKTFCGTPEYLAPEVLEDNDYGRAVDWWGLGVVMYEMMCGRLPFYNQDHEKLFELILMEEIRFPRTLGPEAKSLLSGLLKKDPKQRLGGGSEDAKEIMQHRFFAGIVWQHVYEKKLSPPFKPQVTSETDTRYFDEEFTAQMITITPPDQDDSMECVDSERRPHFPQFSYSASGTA

B1: NT1-2: recombinant GST-FAK truncated peptide, residues 61-126 (protein, listed as Homo sapiens)
chain: ATDVRGIIQKIVDSHKVKNVACYGFRLSHLRSEEVHWLHVDMGVSSVREKYELAHPPEEWKYELRI
modifications: GST tag
Regarding B1, the “Akt1 pulled down by GST-FAK truncations” value with Akt1 [1] was “significantly more Akt1”.

B2: NT1: recombinant GST-FAK truncated peptide, FAK residues 1-126 (SEQ ID NO:3) (protein)
chain: MAAAYLDPNLNHTPNSSTKTHLGTGMERSPGAMERVLKVFHYFESNSEPTTWASIIRHGDATDVRGIIQKIVDSHKVKNVACYGFRLSHLRSEEVHWLHVDMGVSSVREKYELAHPPEEWKYELRI
modifications: left off: large carriers
B2: in the assay with Akt1 [1], the “Akt1 pulled down by GST-FAK truncations” value is “significantly more Akt1”. In addition, in the assay with Akt1 [1] (overnight incubation with either cell lysate or purified Akt1), the “Akt1 pulled down by GST-FAK-NT1-conjugated Sepharose beads” value is reported as “pulled down Akt1”.

B3: HA-conjugated FRNK: HA-tagged FAK-related non-kinase, 67 kDa segment from the COOH-terminal region of FAK (protein)
chain: MESRRQATVSWDSGGSDEAPPKPSRPGYPSPRSSEGFYPSPQHMVQTNHYQVSGYPGSHGITAMAGSIYPGQASLLDQTDSWNHRPQEIAMWQPNVEDSTVLDLRGIGQVLPTHLMEERLIRQQQEMEEDQRWLEKEERFLKPDVRLSRGSIDREDGSLQGPIGNQHIYQPVGKPDPAAPPKKPPRPGAPGHLGSLASLSSPADSYNEGVKLQPQEISPPPTANLDRSNDKVYENVTGLVKAVIEMSSKIQPAPPEEYVPMVKEVGLALRTLLATVDETIPLLPASTHREIEMAQKLLNSDLGELINKMKLAQQYVMTSLQQEYKKQMLTAAHALAVDAKNLLDVIDQARLKMLGQTRPH
modifications: left off: small tags and cut ends
notes: HA-tagged FAK-related non-kinase, 67 kDa segment from the COOH-terminal region of FAK
For the molecule B3, the “HA-tagged protein in eluate after passage over GST-Akt1 beads (Western blot for HA)” value with Akt1 [2] is reported as “markedly reduced”.

B4: HA-conjugated wild type FAK: HA-tagged wild type FAK expressed in Caco-2 cells (protein)
chain: MAAAYLDPNLNHTPNSSTKTHLGTGMERSPGAMERVLKVFHYFESNSEPTTWASIIRHGDATDVRGIIQKIVDSHKVKHVACYGFRLSHLRSEEVHWLHVDMGVSSVREKYELAHPPEEWKYELRIRYLPKGFLNQFTEDKPTLNFFYQQVKSDYMLEIADQVDQEIALKLGCLEIRRSYWEMRGNALEKKSNYEVLEKDVGLKRFFPKSLLDSVKAKTLRKLIQQTFRQFANLNREESILKFFEILSPVYRFDKECFKCALGSSWIISVELAIGPEEGISYLTDKGCNPTHLADFTQVQTIQYSNSEDKDRKGMLQLKIAGAPEPLTVTAPSLTIAENMADLIDGYCRLVNGTSQSFIIRPQKEGERALPSIPKLANSEKQGMRTHAVSVSETDDYAEIIDEEDTYTMPSTRDYEIQRERIELGRCIGEGQFGDVHQGIYMSPENPALAVAIKTCKNCTSDSVREKFLQEALTMRQFDHPHIVKLIGVITENPVWIIMELCTLGELRSFLQVRKYSLDLASLILYAYQLSTALAYLESKRFVHRDIAARNVLVSSNDCVKLGDFGLSRYMEDSTYYKASKGKLPIKWMAPESINFRRFTSASDVWMFGVCMWEILMHGVKPFQGVKNNDVIGRIENGERLPMPPNCPPTLYSLMTKCWAYDPSRRPRFTELKAQLSTILEEEKAQQEERMRMESRRQATVSWDSGGSDEAPPKPSRPGYPSPRSSEGFYPSPQHMVQTNHYQVSGYPGSHGITAMAGSIYPGQASLLDQTDSWNHRPQEIAMWQPNVEDSTVLDLRGIGQVLPTHLMEERLIRQQQEMEEDQRWLEKEERFLKPDVRLSRGSIDREDGSLQGPIGNQHIYQPVGKPDPAAPPKKPPRPGAPGHLGSLASLSSPADSYNEGVKLQPQEISPPPTANLDRSNDKVYENVTGLVKAVIEMSSKIQPAPPEEYVPMVKEVGLALRTLLATVDETIPLLPASTHREIEMAQKLLNSDLGELINKMKLAQQYVMTSLQQEYKKQMLTAAHALAVDAKNLLDVIDQARLKMLGQTRPH
modifications: left off: small tags and cut ends
notes: HA-tagged wild type FAK expressed in Caco-2 cells
Consider B4, for which the “HA-tagged protein in eluate after passage over GST-Akt1 beads (Western blot for HA)” value with Akt1 [2] is given as “enriched”.

Source of the values: US11452764B2, “Inhibiting FAK-AKT interaction to inhibit metastasis” (Board of Trustees of Michigan State University, priority 2017, dated 2022).
